In US9938503B2, “Differentiation of human iPS cells to human alveolar type II via definitive endoderm” (YALE UNIVERSITY, priority 2012, dated 2018):

Columns and labels:
iPSC-AETII cells = experiment: Differentiation of iPSC-derived AETII cells to AETI cells with IWR-1; type: cell-based, human
Description: Differentiated cells at day 22 were then maintained in DMEM medium with 10% FBS, 2 mM L-glutamine, 1 mM nonessential amino acids, 1% antibiotic-antimycotic and […] IWR-1 for 7 days.
(§1) For flow cytometry, cells were dissociated into single-cell suspensions by incubation with 0.25% trypsin for 2 min, and fixed (Fixation/Permeabilization kit, BD Biosciences). After blocking for 30 min on ice, the cells were incubated with primary antibody in blocking solution for 30 min on ice. The cells were resuspended in 350 μl of Perm/Wash buffer after incubation with conjugated secondaries for 30 min on ice, washed twice, and analyzed by flow cytometry. See Table 1 for antibody information.
(§2) Total RNA was extracted using the RNeasy Mini Kit from Qiagen, following the manufacturer's instructions. First-strand complementary DNA (cDNA) was synthesized with random hexamers as primers, using SuperScript First-Strand Synthesis System according to manufacturer's protocol (Invitrogen). Each sample was run in triplicate with iQ™ SYBR Green Supermix (Bio-Rad). PCR conditions included an initial denaturation step of 4 min at 95° C., followed by 40 cycles of PCR consisting of 15s at 95° C., 30 s at 60° C., and 30 s at 72° C. Average threshold cycle (Ct) values from the triplicate PCR reactions for a gene of interest (GOI) were normalized against average GAPDH Ct values from the same cDNA sample. Fold change of GOI transcript levels between sample A and sample B equals 2^−ΔΔCt, where ΔCt=Ct(GOI)−Ct(GAPDH), and ΔΔCt=ΔCt(A)−ΔCt(B).

iPSC-derived DE cells = experiment: Extracellular matrix protein effects on DE cell adhesion and differentiation; type: cell-based, human; conditions: ECM-coated plates, media with NOGGIN/SB-431542
Description: (§3) DE generated by exposure to activin A were trypsinized, reseeded at a ratio of 1:1-2 on human ECM protein-coated plates and differentiated to anterior foregut endoderm with IMDM+5% FBS, 2 mM L-glutamine, 1 mM nonessential amino acids, 1% antibiotic-antimycotic supplemented with 200 ng/ml NOGGIN and […] SB-431542 for 2 days (Longmire T A, et al. 2012. Cell Stem Cell 10(4):398-411, Green M D, et al. 2011. Nat Biotechnol 29(3):267-272).
as §2, with “ΔΔCt=ΔCt(A)−ΔCt(B). […]” for “ΔΔCt=ΔCt(A)−ΔCt(B).”

[1] = test system: human iPS cells (C1 and C2 clones); experiment: Differentiation of iPS cells to definitive endoderm with activin A, flow cytometry; type: cell-based; conditions: for endodermal cells based on dual expression of SOX17 and FOXA2: day 6
Description: Human iPSCs were differentiated to alveolar epithelium in a directed differentiation protocol via definitive endoderm (DE) and anterior foregut endoderm (AFE). iPS cells were differentiated towards definitive endoderm under conditions described previously (Duan Y, et al. 2010. Stem Cells 28(4):674-686, Kubo A, et al. 2004. Development. 131(7):1651-1662). Briefly, h-iPSC were cultured in RPMI 1640 medium supplemented with 100 ng/ml activin A, 2 mM L-glutamine and 1% antibiotic-antimycotic for 48 hours; 1xB27 supplement, 0.5 mM sodium butyrate and 0.1% FBS were added into the same medium and the cells were cultured for another 4 days, with daily medium changes (D'Amour K A, et al. 2005. Nat Biotechnol 23(12):1534-1541).
as §1

[2] = test system: iPSC-derived definitive endoderm cells; experiment: Differentiation of definitive endoderm to anterior foregut endoderm with NOGGIN/SB-431542, flow cytometry; type: cell-based, human
Description: as §3, §1

[3] = 100 mM IWR-1 for 7 days from day 22, flow cytometry, C1 clone
[4] = C1 clone, day 6, 100 ng/ml activin A, flow cytometry
[5] = C2 clone, day 6, 100 ng/ml activin A, flow cytometry
[6] = continuous activin A from day 6 to day 8 without NOGGIN/SB-431542

**Q.** For `O=C(Nc1cccc2cccnc12)c1ccc(N2C(=O)[C@@H]3[C@H](C2=O)[C@@H]2C=C[C@H]3C2)cc1` [IWR-1], which “cells expressing T1α” value (iPSC-AETII cells; [3]) is on record?
**A.** ≤ 88%

**Q.** And the “cells positive for aquaporin-5 (AQ5)” value (iPSC-AETII cells; [3])?
**A.** up to 92%

**Q.** What about the “cells positive for caveolin-1” value (iPSC-AETII cells; [3]) of the same molecule?
**A.** ≤ 98%

**Q.** And the “AETI cells positive for the type I markers T1α and caveolin-1” value (iPSC-AETII cells; AETII exposed to Wnt/β-catenin inhibitor)?
**A.** more than 90%

**Q.** And the “AETI markers AQ5, T1α and caveolin-1 by immunostaining” value (iPSC-AETII cells; IWR-1 treated versus untreated AETII)?
**A.** significant increase

**Q.** And the “AETII cell marker SPC” value (iPSC-AETII cells; after IWR-1, flow cytometry)?
**A.** decreased significantly

**Q.** What about the “expression of type I cell markers by quantitative RT-PCR” value (iPSC-AETII cells; iPSC-AETII cells exposed to IWR-1 versus freshly isolated human primary alveolar type I cells) of the same molecule?
**A.** comparable to expression levels of freshly isolated human primary alveolar type I cells

**Q.** Which DE cell attachment (iPSC-derived DE cells) does the source give for Fibronectin here?
**A.** attach well

**Q.** Which DE cell attachment (iPSC-derived DE cells) does the source give for laminin here?
**A.** attach well

B1: activin A: soluble cytokine activating the nodal receptor, used at 100 ng/ml to induce definitive endoderm (protein, UniProt P08476 311-426, looked up)
Inhibin beta A chain: GLECDGKVNICCKKQFFVSFKDIGWNDWIIAPSGYHANYCEGECPSHIAGTSGSSLSFHSTVINHYRMRGHSPFANLKSCCVPTKLRPMSMLYYDDGQNIIKKDIQNMIVEECGCS
modifications: Inhibin beta A chain
**Q.** What does the source list for B1?
**A.** endodermal cells based on dual expression of SOX17 and FOXA2 ([1]; C1 clone): more than 85%; percentage of cells expressing CXCR4 [1, 4]: 92.71±4.0%; percentage of cells expressing FOXA2 [1, 4]: 87.66±1.2%; endodermal cells based on dual expression of SOX17 and FOXA2 ([1]; C2 clone): > 89%; percentage of cells expressing CXCR4 [1, 5]: 87.23±2.0%; percentage of cells expressing FOXA2 [1, 5]: 83.54±1.8%; percentage of cells expressing SOX17 [1, 5]: 91.42±3.0%; cells positive for NKX2.1 ([2]; activin A induced cells without NOGGIN/SB-431542, day 13): < 1%; FOXA2+/SOX2+ cells [2, 6]: rare; NKX2.1+ cells [2, 6]: few
